Patent US20250276073A1 (Bicycle, published 2025)
Starred links: 1 amine or outer side, 2 acyl side, 3 side chain; linkers in the order of their positions; H or OH if unused. Positions of bridges follow the written chain, without caps; N, C: chain ends. Non-standard residues stand in square brackets, D forms with d. No end group written: not given here. TATB = O=C(C[*:1])N1CN(C(=O)C[*:2])CN(C(=O)C[*:3])C1; Hyp = O=C(O)[C@@H]1C[C@@H](O)CN1; Tle = CC(C)(C)[C@H](N)C(=O)O

Target: T1, Recombinant human His-tagged TfR1 (a.a. 89-760) (ACRO Biosystems, CD1-H5243) (human, UniProt P02786 89-760)
T1 construct: range 89-760; Bought protein; Captured and amine-coupled on an NTA chip; also called human TfR1; transferrin receptor 1; not shown: His tag (printed 'Hiss-tagged')
T1 sequence (P02786 89-760 limits assumed): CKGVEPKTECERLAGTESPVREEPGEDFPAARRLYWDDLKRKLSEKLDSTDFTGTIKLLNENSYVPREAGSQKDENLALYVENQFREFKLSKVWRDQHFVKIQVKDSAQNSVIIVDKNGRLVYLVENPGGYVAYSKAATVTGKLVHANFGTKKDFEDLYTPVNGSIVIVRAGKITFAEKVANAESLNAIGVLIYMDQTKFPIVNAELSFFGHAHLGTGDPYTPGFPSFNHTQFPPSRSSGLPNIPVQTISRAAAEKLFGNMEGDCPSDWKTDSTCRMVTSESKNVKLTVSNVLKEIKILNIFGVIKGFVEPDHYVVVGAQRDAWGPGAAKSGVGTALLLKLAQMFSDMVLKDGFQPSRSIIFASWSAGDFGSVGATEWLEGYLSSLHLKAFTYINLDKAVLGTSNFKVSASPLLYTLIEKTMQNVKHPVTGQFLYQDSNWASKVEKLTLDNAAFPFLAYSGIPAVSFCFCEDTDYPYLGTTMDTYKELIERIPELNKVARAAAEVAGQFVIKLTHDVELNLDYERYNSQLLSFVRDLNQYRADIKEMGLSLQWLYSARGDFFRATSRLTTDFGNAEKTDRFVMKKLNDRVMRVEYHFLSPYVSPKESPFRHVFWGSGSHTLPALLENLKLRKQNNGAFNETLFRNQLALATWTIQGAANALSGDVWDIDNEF
Experiment: SPR (Biacore), TfR1 captured/coupled on NTA chip, peptide as analyte

B1: BCY23180 (peptide)
peptide: CXXDAYLGCXSYCEPW
modifications: not fully specified; C[HyP][HyP]DAYLGC[tBuGly]SYCEPW: HyP at 2 and 3, tBuGly at 10; N-terminal acetyl; C-terminal CONH2; Cys 1, 9, 13 bonded to TATB scaffold
notes: Bicyclic peptide
Kd: 50 nM

B2: BCY23202 (peptide)
peptide: CPXDAYLGCXSXCEPW
modifications: CP[HyP]DAYLGC[tBuGly]S[pCoPhe]CEPW: HyP at 3, tBuGly at 10, pCoPhe at 12; N-terminal acetyl; C-terminal CONH2; Cys 1, 9, 13 bonded to TATB scaffold
notes: Bicyclic peptide
Kd: 23 nM

B3: BCY23203 (peptide)
peptide: CPXDAYLGCXSXCEPW
modifications: CP[HyP]DAYLGC[tBuGly]S[hTyr]CEPW: HyP at 3, tBuGly at 10, hTyr at 12; N-terminal acetyl; C-terminal CONH2; Cys 1, 9, 13 bonded to TATB scaffold
notes: Bicyclic peptide
Kd: 283 nM

B4: BCY23204 (peptide)
peptide: CPXDAYLGCXSYCEXW
modifications: CP[HyP]DAYLGC[tBuGly]SYCE[HyP]W: HyP at 3 and 15, tBuGly at 10; N-terminal acetyl; C-terminal CONH2; Cys 1, 9, 13 bonded to TATB scaffold
notes: Bicyclic peptide
Kd: 9 nM

B5: BCY23205 (peptide)
peptide: CPXDAYLGCXSYCEXW
modifications: CP[HyP]DAYLGC[tBuGly]SYCE[Oxa]W: HyP at 3, tBuGly at 10, Oxa at 15; N-terminal acetyl; C-terminal CONH2; Cys 1, 9, 13 bonded to TATB scaffold
notes: Bicyclic peptide
Kd: 11 nM

B6: BCY23184 (peptide)
peptide: CPXDAYLGCXSYCEPW
modifications: CP[Cis-HyP]DAYLGC[tBuGly]SYCEPW: Cis-HyP at 3, tBuGly at 10; N-terminal acetyl; C-terminal CONH2; Cys 1, 9, 13 bonded to TATB scaffold
notes: Bicyclic peptide
Kd: 13 nM

B7: BCY23207 (peptide)
peptide: CPXDAYLGCXSYCEPY
modifications: CP[HyP]DAYLGC[tBuGly]SYCEPY: HyP at 3, tBuGly at 10; N-terminal acetyl; C-terminal CONH2; Cys 1, 9, 13 bonded to TATB scaffold
notes: Bicyclic peptide
Kd: 7.7 nM

B8: BCY23216 (peptide)
peptide: Ac-CP[Hyp]EAYLGC[Tle]SYCEPW-NH2
modifications: linker 1-9-13 via TATB
SMILES: CC(=O)N[C@H]1CSCC(=O)N2CN3CN(C2)C(=O)CSC[C@@H](C(=O)N[C@@H](CCC(=O)O)C(=O)N2CCC[C@H]2C(=O)N[C@@H](Cc2c[nH]c4ccccc24)C(N)=O)NC(=O)[C@H](Cc2ccc(O)cc2)NC(=O)[C@H](CO)NC(=O)[C@H](C(C)(C)C)NC(=O)[C@H](CSCC3=O)NC(=O)CNC(=O)[C@H](CC(C)C)NC(=O)[C@H](Cc2ccc(O)cc2)NC(=O)[C@H](C)NC(=O)[C@H](CCC(=O)O)NC(=O)[C@@H]2C[C@@H](O)CN2C(=O)[C@@H]2CCCN2C1=O
notes: Bicyclic peptide
Kd: 158 nM

B9: BCY23218 (peptide)
peptide: Ac-CP[Hyp]DAYSGC[Tle]SYCEPW-NH2
modifications: linker 1-9-13 via TATB
SMILES: CC(=O)N[C@H]1CSCC(=O)N2CN3CN(C2)C(=O)CSC[C@@H](C(=O)N[C@@H](CCC(=O)O)C(=O)N2CCC[C@H]2C(=O)N[C@@H](Cc2c[nH]c4ccccc24)C(N)=O)NC(=O)[C@H](Cc2ccc(O)cc2)NC(=O)[C@H](CO)NC(=O)[C@H](C(C)(C)C)NC(=O)[C@H](CSCC3=O)NC(=O)CNC(=O)[C@H](CO)NC(=O)[C@H](Cc2ccc(O)cc2)NC(=O)[C@H](C)NC(=O)[C@H](CC(=O)O)NC(=O)[C@@H]2C[C@@H](O)CN2C(=O)[C@@H]2CCCN2C1=O
notes: Bicyclic peptide
Kd: 55 nM

B10: BCY23219 (peptide)
peptide: Ac-CP[Hyp]DAYTGC[Tle]SYCEPW-NH2
modifications: linker 1-9-13 via TATB
SMILES: CC(=O)N[C@H]1CSCC(=O)N2CN3CN(C2)C(=O)CSC[C@@H](C(=O)N[C@@H](CCC(=O)O)C(=O)N2CCC[C@H]2C(=O)N[C@@H](Cc2c[nH]c4ccccc24)C(N)=O)NC(=O)[C@H](Cc2ccc(O)cc2)NC(=O)[C@H](CO)NC(=O)[C@H](C(C)(C)C)NC(=O)[C@H](CSCC3=O)NC(=O)CNC(=O)[C@H]([C@@H](C)O)NC(=O)[C@H](Cc2ccc(O)cc2)NC(=O)[C@H](C)NC(=O)[C@H](CC(=O)O)NC(=O)[C@@H]2C[C@@H](O)CN2C(=O)[C@@H]2CCCN2C1=O
notes: Bicyclic peptide
Kd: 51 nM

B11: BCY23220 (peptide)
peptide: Ac-CP[Hyp]DAYDGC[Tle]SYCEPW-NH2
modifications: linker 1-9-13 via TATB
SMILES: CC(=O)N[C@H]1CSCC(=O)N2CN3CN(C2)C(=O)CSC[C@@H](C(=O)N[C@@H](CCC(=O)O)C(=O)N2CCC[C@H]2C(=O)N[C@@H](Cc2c[nH]c4ccccc24)C(N)=O)NC(=O)[C@H](Cc2ccc(O)cc2)NC(=O)[C@H](CO)NC(=O)[C@H](C(C)(C)C)NC(=O)[C@H](CSCC3=O)NC(=O)CNC(=O)[C@H](CC(=O)O)NC(=O)[C@H](Cc2ccc(O)cc2)NC(=O)[C@H](C)NC(=O)[C@H](CC(=O)O)NC(=O)[C@@H]2C[C@@H](O)CN2C(=O)[C@@H]2CCCN2C1=O
notes: Bicyclic peptide
Kd: 72 nM

B12: BCY23221 (peptide)
peptide: Ac-CP[Hyp]DAYEGC[Tle]SYCEPW-NH2
modifications: linker 1-9-13 via TATB
SMILES: CC(=O)N[C@H]1CSCC(=O)N2CN3CN(C2)C(=O)CSC[C@@H](C(=O)N[C@@H](CCC(=O)O)C(=O)N2CCC[C@H]2C(=O)N[C@@H](Cc2c[nH]c4ccccc24)C(N)=O)NC(=O)[C@H](Cc2ccc(O)cc2)NC(=O)[C@H](CO)NC(=O)[C@H](C(C)(C)C)NC(=O)[C@H](CSCC3=O)NC(=O)CNC(=O)[C@H](CCC(=O)O)NC(=O)[C@H](Cc2ccc(O)cc2)NC(=O)[C@H](C)NC(=O)[C@H](CC(=O)O)NC(=O)[C@@H]2C[C@@H](O)CN2C(=O)[C@@H]2CCCN2C1=O
notes: Bicyclic peptide
Kd: 120 nM

B13: BCY23222 (peptide)
peptide: Ac-CP[Hyp]DAYNGC[Tle]SYCEPW-NH2
modifications: linker 1-9-13 via TATB
SMILES: CC(=O)N[C@H]1CSCC(=O)N2CN3CN(C2)C(=O)CSC[C@@H](C(=O)N[C@@H](CCC(=O)O)C(=O)N2CCC[C@H]2C(=O)N[C@@H](Cc2c[nH]c4ccccc24)C(N)=O)NC(=O)[C@H](Cc2ccc(O)cc2)NC(=O)[C@H](CO)NC(=O)[C@H](C(C)(C)C)NC(=O)[C@H](CSCC3=O)NC(=O)CNC(=O)[C@H](CC(N)=O)NC(=O)[C@H](Cc2ccc(O)cc2)NC(=O)[C@H](C)NC(=O)[C@H](CC(=O)O)NC(=O)[C@@H]2C[C@@H](O)CN2C(=O)[C@@H]2CCCN2C1=O
notes: Bicyclic peptide
Kd: 58 nM

B14: BCY23223 (peptide)
peptide: CP[Hyp]DAYQGC[Tle]SYCEPW-NH2
modifications: linker 1-9-13 via TATB; not fully specified (N-terminus); printed as CP[HyP]DAYQGC[tBuGly]SYCEPW
notes: Bicyclic peptide
Kd: 50 nM
